Results from patent US20140348844A1 (UCB, published 2014).
Where “and” joins values, the source holds several entries; their conditions need not be identical. Equal entries are not always repeated.

Experiments:
toxin B (VPI 10463) [1] = biological target: T1, toxin B (VPI 10463) (Clostridium difficile strain VPI 10463, UniProt P18177 2-2366); test: cell-based or functional assay
toxin B (VPI 10463) [2] = biological target: T1, toxin B (VPI 10463); test: cell-based or functional assay; remark: listed apart in the source
TcdB binding (TcdB1234) [3] = biological target: T2, TcdB binding (TcdB1234) (Clostridium difficile ribotype 027, UniProt P18177 1833-2366); test: SPR BIAcore 3000, Mab captured on anti-human Fc, TcdB1234 in solution, purified Mab 3 point titration
T2 construct: also called CROPs1,2,3,4 of Toxin B

toxin B (VPI 10463) [4] = biological target: T1, toxin B (VPI 10463); test: cell-based or functional assay; remark: listed apart in the source
TcdB binding (TcdB1234) [5] = biological target: T2, TcdB binding (TcdB1234); test: SPR Biacore 3000, biotinylated TcdB1234 on streptavidin chip, antibody at 500 nM, saturating response
TcdA CROPS456 (TcdA456) = TcdA CROPS456 (TcdA456) (Clostridium difficile ribotype 027, UniProt P16154 2205-2608)
TcdA from ribotype 027 = biological target: T3, TcdA from ribotype 027 (Clostridium difficile ribotype 027, UniProt P16154 1-2710); test: estimated from SPR on TcdA sub-domains
T3 construct: also called TcdA ribotype 027; TcdA whole toxin

[6] = biological target: TcdA purified from strain VPI10463 (Clostridium difficile strain VPI10463, UniProt P16154 1-2710); test: cell-based or functional assay
TcdA ribotype 078 = TcdA ribotype 078 (Clostridium difficile ribotype 078); test: cell-based or functional assay

B1: CA164_1134.g5 (antibody, V domains shown)
VH: EVQLQESGPGLVKPSETLSLTCTVSGFSLNSYTITWVRQPPGKGLEWIAAISGGGSTYFNSALKSRVTISRDTSKSQVSLKLSSVTAADTAVYYCTRPRWYPRSYFDYWGRGTLVTVS
VL: DVQLTQSPSFLSASVGDRVTITCKASKSISNHLAWYQEKPGKANKLLIHSGSTLQPGTPSRFSGSGSGTEFTLTISSLQPEDFATYYCQQYDEYPYTFGQGTRLEIK
notes: also called CA1134; CA164_01134.g5
- EC50(ng/ml), TcdB neutralisation on Caco-2 cells, constant toxin concentration (toxin B (VPI 10463) [1]): > 1000 ng/mL
- Maximum neutralisation, TcdB LD75 (toxin B (VPI 10463) [2]): 45%
- Maximum neutralisation, TcdB LD86 (toxin B (VPI 10463) [2]): 25%
- Maximum neutralisation, TcdB LD90 (toxin B (VPI 10463) [2]): 15%
- Kd (TcdB binding (TcdB1234) [3]): 0.0481 nM and 0.048 nM
- koff (TcdB binding (TcdB1234) [3]): 2.45e-05 s⁻¹
- kon (TcdB binding (TcdB1234) [3]): 509000 M⁻¹ s⁻¹
- IC50 (ng/ml), TcdB neutralisation on Caco-2 cells, toxin at LD80 (toxin B (VPI 10463) [4]): 8 ng/mL

B2: CA164_1099.g2 (antibody, V domains shown)
VH: EVQLQESGPGLVKPSETLSLTCTVSGFSLQSYTISWVRQPPGKGLEWIAAISGGGSTYYNLPLKSRVTISRDTSKSQVSLKLSSVTAADTAVYYCTRPRWYPRSYFDYWGRGTLVTVS
VL: DVQLTQSPSFLSASVGDRVTITCKASKSISNHLAWYQEKPGKANKLLIHSGSTLQSGTPSRFSGSGSGTEFTLTISSLQPEDFATYYCQQYDEYPYTFGQGTRLEIKR
- IC50 (ng/ml), TcdB neutralisation on Caco-2 cells, toxin at LD80 (toxin B (VPI 10463) [4]): 2 ng/mL

B3: CA164_1151.g4 (antibody, V domains shown)
VH: EVQLQESGPGLVKPSETLSLTCTVSGFSLTSYYVHWVRQPPGKGLEWMGCIRTGGNTEYQSEFKSRVTISRDTSKNQVSLKLSSVTAADTAVYYCARGNYGFAYWGQGTLVTVS
VL: AIQMTQSPSSLSASVGDRVTITCKASQNVGNNVAWYQHKPGKAPKLLIYYASNRFTGVPSRFTGGGYGTDFTLTISSLQPEDFATYYCQRVYQSTWTFGQGTKVEIK
notes: also called CA1151; CA1151.g4
- Binding Response (RU) (TcdB binding (TcdB1234) [5]): 1230 RU
- Maximum neutralisation, TcdB LD75 (toxin B (VPI 10463) [2]): 45%
- Maximum neutralisation, TcdB LD86 (toxin B (VPI 10463) [2]): 25%
- Maximum neutralisation, TcdB LD90 (toxin B (VPI 10463) [2]): 20%
- IC50 (ng/ml), TcdB neutralisation on Caco-2 cells, toxin at LD80 (toxin B (VPI 10463) [4]): 182 ng/mL

B4: CA164_00995.g1 (antibody, V domains shown)
VH: EVQLVESGGGLVQPGGSLRLSCTASGFSLSNYDMIWVRQAPGKGLEYIGFINTGGITYYASWAKGRFTISRDSSTVYLQMNSLRAEDTATYFCARVDDYIGAWGAGLWGQGTLVTVS
VL: DVVMTQSPSTLSASVGDRVTITCQASQSINNYFSWYQQKPGKAPKLLIYGAANLASGVPSRFKGSGSGTEYTLTISSLQPDDFATYSCQNNYGVHIYGAAFGGGTKVEIK
notes: also called CA995; CA164_0995.g1
- Kd (TcdA CROPS456 (TcdA456)): 0.119 nM
- koff (TcdA CROPS456 (TcdA456)): 3.42e-05 s⁻¹
- kon (TcdA CROPS456 (TcdA456)): 287000 M⁻¹ s⁻¹
- Valency of binding, TcdA, est. (TcdA from ribotype 027): 1
- EC50 (ng/ml), TcdA neutralisation on Caco-2 cells, TcdA at LD80 [6]: 37.6 ng/mL

B5: CA164_00922.g1 (antibody, V domains shown)
VH: EVQLVESGGGLVQPGGSLRLSCAASGFTISSYYMSWVRQAPGKGLEWIGIISSGGHFTWYANWAKGRFTISSDSTTVYLQMNSLRDEDTATYFCARAYVSGSSFNGYALWGQGTLVTVS
VL: DPVMTQSPSTLSASVGDRVTITCQASQSISNALAWYQQKPGKAPKLLIYSASSLASGVPSRFKGSGSGTEFTLTISSLQPDDFATYYCQYTHYSHTSKNPFGGGTKVEIK
- EC50 values (ng/ml) - TcdA ribotype 078, LD80 (TcdA ribotype 078): 0.11 ng/mL
- EC50 values (ng/ml) - TcdA ribotype 078, LDmax (TcdA ribotype 078): 0.68 ng/mL

B6: CA164_00997.g1 (antibody, V domains shown)
VH: EVQLVESGGGLVQPGGSLRLSCTVSGIDLSSHHMCWVRQAPGKGLEYIGVIYHFGSTYYANWATGRFTISKDSTTVYLQMNSLRAEDTATYFCARASIAGYSAFDPWGQGTLVTVS
VL: ALVMTQSPSSFSASTGDRVTITCQASQSISSYLSWYQQKPGKAPKLLIYRASTLASGVPSRFSGSGSGTEYTLTISCLQSEDFATYYCLGVYGYSNDDGIAFGGGTKVEIK
- EC50 values (ng/ml) - TcdA ribotype 078, LD80 (TcdA ribotype 078): 0.33 ng/mL
- EC50 values (ng/ml) - TcdA ribotype 078, LD90 (TcdA ribotype 078): 0.64 ng/mL
- EC50 values (ng/ml) - TcdA ribotype 078, LD95 (TcdA ribotype 078): 1.11 ng/mL
- EC50 values (ng/ml) - TcdA ribotype 078, LDmax (TcdA ribotype 078): 2.57 ng/mL

B7: CA164_01000.g1 (antibody, V domains shown)
VH: EVQLVESGGGLIQPGGSLRLSCTVSGIDLSSDAVGWVRQAPGKGLEYIGIIATFDSTYYASWAKGRFTISKASSTTVYLQMNSLRAEDTATYFCARTGSWYYISGWGSYYYGMDLWGQGTLVTVS
VL: EIVMTQSPSTLSASVGDRVTITCQASQSIYSYLAWYQQKPGKAPKLLIYDASTLASGVPSRFKGSGSGTEFTLTISSLQPDDFATYYCQGNAYTSNSHDNAFGGGTKVEIK
- EC50 values (ng/ml) - TcdA ribotype 078, LD80 (TcdA ribotype 078): 2.04 ng/mL
- EC50 values (ng/ml) - TcdA ribotype 078, LD90 (TcdA ribotype 078): 2.41 ng/mL
- EC50 values (ng/ml) - TcdA ribotype 078, LD95 (TcdA ribotype 078): 5.03 ng/mL
- EC50 values (ng/ml) - TcdA ribotype 078, LDmax (TcdA ribotype 078): 14.2 ng/mL
